# In article PMC8054141, “The molecular basis of the inhibition of CaV1 calcium-dependent inactivation by the distal carboxy tail” (The Journal of Biological Chemistry, 2021):
# B1: Venus-PreIQ3-IQ-A1.3 (domain or fragment)
# chain: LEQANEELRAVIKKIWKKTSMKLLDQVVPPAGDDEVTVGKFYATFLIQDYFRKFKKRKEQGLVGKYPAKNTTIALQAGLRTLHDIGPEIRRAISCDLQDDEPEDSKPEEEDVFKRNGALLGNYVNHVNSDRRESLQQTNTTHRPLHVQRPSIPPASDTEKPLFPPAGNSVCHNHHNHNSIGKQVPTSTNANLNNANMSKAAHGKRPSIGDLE
# modifications: Limits approximate: about 30 residues PreIQ3 + IQ + about 150 residues A region. Position of the IQ isoleucine (I[0]) on P27732 was inferred as 1656; the paper's numbering (KPY1626, ALQ1635) implies …
# B2: Venus-PreIQ3-IQ-A1.3 F[−2]A (domain or fragment)
# chain: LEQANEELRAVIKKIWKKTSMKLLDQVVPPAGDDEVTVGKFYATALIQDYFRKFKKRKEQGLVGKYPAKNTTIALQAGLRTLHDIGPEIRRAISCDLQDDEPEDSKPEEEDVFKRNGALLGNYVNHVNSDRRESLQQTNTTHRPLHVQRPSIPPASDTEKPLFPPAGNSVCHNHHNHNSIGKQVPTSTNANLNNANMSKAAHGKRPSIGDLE
# modifications: F[-2]A, two residues before the canonical IQ isoleucine (inferred as 1656 on P27732). Limits approximate, as for m1. Venus tag omitted.
# Target: T1, Cerulean-ICDI1.4 (human)
# T1 construct: CaV1.4 alpha1 subunit, human clone NP005174.2; ICDI domain of the distal carboxy tail; Fluorophore cloned KpnI/NotI and the channel peptide NotI/XbaI in pcDNA3, so Cerulean probably precedes the peptide; also called ICDI domain from CaV1.4; source: HEK293, transiently transfected (PEI), in live cells
# Assay: FRET or BRET; live-cell FRET two-hybrid (3^3-FRET) in HEK293 cells on an inverted microscope; Venus-tagged peptide as acceptor, Cerulean-tagged peptide as donor; FRET ratio of each cell against free donor concentration; Tyrode's bath with 2 mM CaCl2, pH 7.4; relative Kd calibrated and converted to Ka = 1/Kd
# Details: partners not purified
row,Binder,Ka
1,B1,2.14e+07 M⁻¹
2,B2,5.8e+06 M⁻¹
